Among the data in patent US20140223606, “COMPOSITIONS AND METHODS COMPRISING SEQUENCES HAVING MEGANUCLEASE ACTIVITY” (PIONEER HI BRED INTERNATIONAL INC, published 2014) are activity values, retold here.

Residue numbers refer to the chain shown, from its start.

Holding throughout (conditions): tags: NLS, 6xHis
The target in data set [1] is T1, MHP14(L14-04) (artificial).
T1 chain: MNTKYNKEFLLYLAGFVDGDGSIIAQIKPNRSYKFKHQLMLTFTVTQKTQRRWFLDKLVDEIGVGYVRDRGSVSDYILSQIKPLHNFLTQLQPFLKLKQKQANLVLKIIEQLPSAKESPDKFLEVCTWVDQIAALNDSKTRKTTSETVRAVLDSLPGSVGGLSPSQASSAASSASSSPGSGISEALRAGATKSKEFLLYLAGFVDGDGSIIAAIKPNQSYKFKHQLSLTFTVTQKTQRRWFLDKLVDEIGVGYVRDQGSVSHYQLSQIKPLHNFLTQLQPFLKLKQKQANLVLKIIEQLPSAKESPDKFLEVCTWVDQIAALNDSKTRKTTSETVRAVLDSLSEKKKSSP
Put plainly: cell_activity; yeast 37 C; 28 C: 0. The protocol: (§1) A 3 mL culture of selective media (MP Biomedical) was inoculated with a single colony of the yeast screening strain and grown at 30° C. overnight. On the following day, a 50 ml YPD culture (MP Biomedical) was started with 2 ml of the overnight culture and grown at 30° C. overnight. On the following day, the cells were harvested by centrifugation at 4000 rpm. The cells were resuspended in 100 ml ice cold water and centrifuged again. The cells were then washed in 1.2 M sorbitol, followed by treatment with 2 ml of 10 mM Tris pH 8.0, 1 mM EDTA, 100 mM Lithium acetate, 10 mM DTT, 0.6M sorbitol for 30 minutes at 30° C. with shaking. The cells were recovered by centrifugation, washed in 40 ml 1.2M sorbitol and finally resuspended in 250 microliters of 1.2M sorbitol. 50 microliter aliquots were transferred to test tubes on ice. Up to 5 microliters of DNA (100-500 nanograms) were added. The suspension was transferred to a 0.2 cm electroporation cuvette, on ice. Electroporation was performed with a pulse charge at 1.5 kV, 200 ohms, 25 microF (pulse time of 5 milliseconds). 1 mL YPD media (MP Biomedical) was added and the cells were allowed to recover at 30° C. for 1-2 hr. The cells were centrifuged, resuspended in 100 uL 1M sorbitol and plated on selective media lacking leucine and containing 2% galactose. The resulting yeast colonies were incubated at various temperatures ranging from 22 to 37 degrees Celsius for 7-10 days. I-CreI and meganucleases derived from it have maximal activity at or above 37 degrees Celsius. Screening was performed at a range of temperatures from 22 to 37 degrees in order to observe increases in activity at lower temperatures which are relevant to certain biological systems (eg. plant cells, plant cell cultures, etc). At that time the red/white sectoring phenotype, indicative of meganuclease activity was observed. Colonies with increased white sectoring over the parental meganuclease (indicating colonies expressing a meganuclease with increased meganuclease activity), also referred to as “hits” and sometimes completely white, were isolated for further analysis.
(§2) A total of 15 MHP14 variants with increased activity were confirmed in the yeast system (as described in Example 6). Increased activity was observed across a range of temperatures: 28 degrees Celsius, 34 degrees Celsius and 37 degrees Celsius, as shown in Table 11.

For data set [2], the target named is T2, MHP14(L14-03) (artificial).
T2 chain: T1 chain with R31Q, I62V, K98R, V105A, K116R, S118T
Put plainly: cell_activity; yeast 37 C; 28 C: 0. On the procedure: as §1, §2

Data set [3] concerns the target T3, MHP14(06) (artificial).
T3 chain: T1 chain with R31Q, Q50R, D56L, I81K, K121G, K244E, F281Y, I319V
Kind of data set: cell_activity; yeast 37 C; 28 C: 0. On the procedure:
as §1, §2

The target in data set [4] is T4, MHP14(01) (artificial).
T4 chain: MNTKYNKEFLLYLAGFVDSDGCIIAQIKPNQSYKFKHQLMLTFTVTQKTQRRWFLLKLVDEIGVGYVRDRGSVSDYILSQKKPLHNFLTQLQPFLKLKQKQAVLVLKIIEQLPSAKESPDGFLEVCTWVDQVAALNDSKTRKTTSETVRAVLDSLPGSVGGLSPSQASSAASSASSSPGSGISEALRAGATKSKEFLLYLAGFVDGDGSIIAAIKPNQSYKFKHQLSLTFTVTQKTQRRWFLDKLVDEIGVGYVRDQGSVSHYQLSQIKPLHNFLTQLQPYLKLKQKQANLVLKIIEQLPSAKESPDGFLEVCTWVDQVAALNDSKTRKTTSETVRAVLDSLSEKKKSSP
Put plainly: cell_activity; yeast 37 C; 28 C: 0. On the procedure:
as §1, §2

In data set [5] the target is T5, ZM6.3(H1) (artificial).
T5 chain: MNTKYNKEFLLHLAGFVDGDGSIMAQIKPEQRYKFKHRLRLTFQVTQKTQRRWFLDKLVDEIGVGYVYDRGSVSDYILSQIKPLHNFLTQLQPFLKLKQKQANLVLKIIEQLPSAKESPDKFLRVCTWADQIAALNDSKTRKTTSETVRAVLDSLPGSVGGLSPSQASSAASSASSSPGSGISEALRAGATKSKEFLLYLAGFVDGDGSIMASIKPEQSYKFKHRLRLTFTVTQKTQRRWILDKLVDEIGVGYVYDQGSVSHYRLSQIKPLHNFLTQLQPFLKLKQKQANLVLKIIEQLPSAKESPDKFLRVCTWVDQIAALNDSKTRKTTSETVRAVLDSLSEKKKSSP
Kind of data set: cell_activity; yeast 37 C; 28 C: 4. On the procedure: as §1
A total of 15 Zm6.3 variants with increased activity were confirmed in the yeast system (as described in Example 6). Increased activity was observed across a range of temperatures: 28 degrees Celsius, 30 degrees Celsius and 37 degrees Celsius, as shown in Table 15.

B1: MHP14 recognition site (dsDNA)
DNA 1: CAAACAGATTCACGTCAGATTT
DNA 2: AAATCTGACGTGAATCTGTTTG
On to B1, for which the activity in data set [1] was found to be 3 score 0-4; in data set [2], 3 score 0-4; in data set [3], 3.5 score 0-4; in data set [4], 3 score 0-4.

B2: ZM6.3 recognition site (dsDNA)
DNA 1: CAGGCTCTCGTAAATGCGCCTG
DNA 2: CAGGCGCATTTACGAGAGCCTG
In turn, B2 yielded an activity in data set [5] of 4 score 0-4.
